These results are taken from PMC2928749, “Understanding the Role of the Josephin Domain in the PolyUb Binding and Cleavage Properties of Ataxin-3” (PLoS ONE, 2010).

The target of assay [1] is T1, K63-linked diUb (made from UbD77 and UbK63R) (UniProt P0CG47 1-76; P0CG47 1-76, UbD77 | UbK63R, K63-linked to the other Ub (isopeptide bond between K63 and G76) | K63-linked to the other Ub (isopeptide bond between K63 and G76)).
T1 construct: ubiquitin, mutant UbD77; ubiquitin, mutant UbK63R; By the usual protocol G76 of UbK63R is joined to K63 of UbD77; also called K63-linked diUb chains; K63-diUb; source: recombinant Ub mutants joined with E1, Ubc13 and Uev1a by the same protocol, purified on a monoS cation exchange column; copies: 1 + 1
Nature of the assay: NMR titration; 15N-labelled Josephin (C14A) 0.05 mM in 20 mM sodium phosphate pH 6.5, 2 mM DTT, 298 K, 600 MHz; stepwise additions of unlabelled K48- or K63-linked diUb up to 10 and 2.5 fold molar excess; chemical shift perturbation. The following applies: both partners purified.

Assay [2] addresses T2, K48-linked diUb (made from UbD77 and UbK48C) (UniProt P0CG47 1-76; P0CG47 1-76, UbD77 | UbK48C, K48-linked to the other Ub (isopeptide bond between K48 and G76) | K48-linked to the other Ub (isopeptide bond between K48 and G76)).
T2 construct: ubiquitin, mutant UbD77; ubiquitin, mutant UbK48C; also called K48-linked diUb chains; K48-diUb; copies: 1 + 1
Described as above. As to conditions: both partners purified.

B1: Josephin domain of ataxin-3 (amino acids 1-182), C14A mutant, 15N labelled (domain or fragment, UniProt P54252 1-182, looked up)
chain: MESIFHEKQEGSLAAQHCLNNLLQGEYFSPVELSSIAHQLDEEERMRMAEGGVTSEDYRTFLQQPSGNMDDSGFFSIQVISNALKVWGLELILFNSPEYQRLRIDPINERSFICNYKEHWFTVRKLGKQWFNLNSLLTGPELISDTYLALFLAQLQQEGYSIFVVKGDLPDCEADQLLQMIR
modifications: 15N labelled
notes: ataxin-3, N-terminal catalytic Josephin domain, amino acids 1-182; catalytic cysteine mutated so that no cleavage could occur; The methods speak of titrations of 15N Josephin or of the C14A mutant; the results say that C14A was used; also called isolated Josephin domain; C14A Josephin mutant; source: E. coli BL21(DE3), purified as previously described [35]; grown in synthetic medium with 15NH4Cl
For the molecule B1, the binding result in assay [1] and in assay [2] was “binds” each time.
